The record followed here is PMC5413349.

For assay [1], the target named is human cytoplasmic dynein-1 complex (recombinant, SNAPf tag on the heavy chain) (human) (UniProt Q14204).
Assay [2] has the same target. The assay is described as follows: single-molecule TIRF co-localisation on microtubules; Alexa647-BICD2N (10x) and TMR-dynein (20 nM in the assembly mix, 1 in 2 dilution) with EB1, dynactin (2x) and LIS1 (20x) on dynamic microtubules.
Assay [3] has as its target native dynactin complex purified from pig brain (pig (purified from pig brain)).
In assay [4] the target is microtubules polymerised from porcine tubulin (porcine). The assay is described as follows: single-molecule TIRF microscopy of binding to microtubules; dynein (100 nM in the assembly mix, 1 in 20 dilution) alone or with a 20x or 300x molar excess of LIS1 on immobilised taxol/GMPCPP-stabilised microtubules, without EB1 and dynactin; 2.5 mM ATP.

Sequence of SNAPf::BICD2N (residues 1-400 of mouse Bicaudal-D2 with an N-terminal SNAPf tag) (Q921C5 1-400): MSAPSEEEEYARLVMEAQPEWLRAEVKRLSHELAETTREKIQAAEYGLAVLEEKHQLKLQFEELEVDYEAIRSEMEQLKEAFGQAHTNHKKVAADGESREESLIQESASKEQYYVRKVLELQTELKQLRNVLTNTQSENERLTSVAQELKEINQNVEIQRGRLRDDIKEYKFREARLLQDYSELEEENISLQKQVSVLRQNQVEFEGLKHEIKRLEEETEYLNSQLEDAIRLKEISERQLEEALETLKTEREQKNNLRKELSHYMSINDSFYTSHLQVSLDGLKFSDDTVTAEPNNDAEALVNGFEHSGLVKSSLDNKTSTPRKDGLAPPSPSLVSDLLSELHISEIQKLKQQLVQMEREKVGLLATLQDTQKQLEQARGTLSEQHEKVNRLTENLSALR

As to “SNAPf::BICD2N (residues 1-400 of mouse Bicaudal-D2 with an N-terminal SNAPf tag) (from UniProt Q921C5 1-400) (domain or fragment)”, the proportion of microtubule-associated dynein complexes in minus end-directed motion with dynactin and BICD2N, without (45%) and with LIS1 (70%) in assay [1] came out at 70%. Further, in assay [2], the percent of plus-end tracking events of TMR-dynein with Alexa647-BICD2N signal is 40%.
Turning to “human cytoplasmic dynein-1 complex (recombinant, SNAPf tag on the heavy chain) (from UniProt Q14204 1-4646; O43237-1 1-492; P63172 1-113; P63167 1-89; Q9NP97-1 1-96)”, in assay [3], the plus-end tracking of Alexa647-dynein on growing microtubules with EB1 and dynactin (TIRF): maximal duration of tracking events turned out to be 9 s; the plus-end tracking of Alexa647-dynein on growing microtubules with EB1 and dynactin (TIRF): mean duration of tracking events came out at 4 s. In assay [4], this substance had a fold increase of the landing rate on the lattice with a 300-fold molar excess of LIS1 against no LIS1 of 3 fold.
